The values that follow come from patent publication US20220135701A1 (Genentech, published 2022).

For assay [1], the target named is T1, human MerTK on human macrophages (human, UniProt Q12866 21-999).
T1 sequence: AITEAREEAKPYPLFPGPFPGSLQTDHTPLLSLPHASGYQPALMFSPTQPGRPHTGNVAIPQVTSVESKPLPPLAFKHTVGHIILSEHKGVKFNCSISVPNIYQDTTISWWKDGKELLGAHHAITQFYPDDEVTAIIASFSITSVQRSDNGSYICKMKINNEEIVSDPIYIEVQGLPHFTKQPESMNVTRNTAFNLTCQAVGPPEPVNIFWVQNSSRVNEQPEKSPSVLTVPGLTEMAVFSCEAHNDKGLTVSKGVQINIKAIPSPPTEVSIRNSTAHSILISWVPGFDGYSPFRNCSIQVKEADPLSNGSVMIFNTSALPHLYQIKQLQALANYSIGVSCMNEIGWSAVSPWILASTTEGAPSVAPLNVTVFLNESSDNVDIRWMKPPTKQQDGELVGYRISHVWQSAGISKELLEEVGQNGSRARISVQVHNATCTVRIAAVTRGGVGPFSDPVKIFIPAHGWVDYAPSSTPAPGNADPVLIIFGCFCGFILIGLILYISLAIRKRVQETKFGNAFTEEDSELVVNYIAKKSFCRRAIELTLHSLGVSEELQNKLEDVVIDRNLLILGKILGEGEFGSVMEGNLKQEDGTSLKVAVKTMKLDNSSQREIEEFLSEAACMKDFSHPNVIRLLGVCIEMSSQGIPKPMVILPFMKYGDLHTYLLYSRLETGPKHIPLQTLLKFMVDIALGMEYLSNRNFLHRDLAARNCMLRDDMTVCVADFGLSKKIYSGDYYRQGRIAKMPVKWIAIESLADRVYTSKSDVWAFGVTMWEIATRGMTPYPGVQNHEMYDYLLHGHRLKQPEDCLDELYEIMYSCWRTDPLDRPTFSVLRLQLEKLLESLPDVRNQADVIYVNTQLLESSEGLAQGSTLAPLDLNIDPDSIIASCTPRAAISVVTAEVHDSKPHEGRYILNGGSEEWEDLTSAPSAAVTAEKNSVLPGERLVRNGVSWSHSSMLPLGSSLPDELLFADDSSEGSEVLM
As to the kind of experiment: cell-based or functional assay.

For assay [2], the target named is T2, human MerTK (human, UniProt Q12866 26-499).
T2 construct: also called HuMER
T2 sequence: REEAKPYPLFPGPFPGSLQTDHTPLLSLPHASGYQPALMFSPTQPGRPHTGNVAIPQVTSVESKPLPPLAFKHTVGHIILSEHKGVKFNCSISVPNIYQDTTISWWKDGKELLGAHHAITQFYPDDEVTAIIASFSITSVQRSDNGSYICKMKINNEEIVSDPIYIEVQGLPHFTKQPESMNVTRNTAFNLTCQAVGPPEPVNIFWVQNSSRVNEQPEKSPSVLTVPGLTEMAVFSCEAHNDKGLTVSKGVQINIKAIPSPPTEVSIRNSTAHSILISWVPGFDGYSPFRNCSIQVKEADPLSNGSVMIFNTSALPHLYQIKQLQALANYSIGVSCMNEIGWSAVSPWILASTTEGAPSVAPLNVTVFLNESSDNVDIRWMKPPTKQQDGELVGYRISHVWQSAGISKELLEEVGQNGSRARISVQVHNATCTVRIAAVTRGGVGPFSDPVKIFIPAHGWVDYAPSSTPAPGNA
Kind of assay: SPR BIAcore T200, Ab captured, 37C. On the procedure: (§1) All binding affinity determinations were obtained using Surface Plasmon Resonance (SPR) measurements from a BIAcore™-T200 instrument. Briefly, each rabbit or humanized antibody was captured to achieve approximately 100 RU (Response Units). Then, 3-fold serial dilutions of MerTK from various species (0.4 nM to 100 nM) diluted in HBS-EP buffer (0.01M HEPES pH 7.4, 0.15M NaCl, 3 mM EDTA and 0.05% v/v surfactant P20) was injected into the BIAcore™-T200 instrument at 25° C. or 37° C. with a flow rate of 30 μl/min. Association rates (kₒₙ) and dissociation rates (koff) were calculated using a simple one-to-one Langmuir binding model (BIAcore T200 evaluation software version 2.0). The equilibrium dissociation constant (KD) was calculated as the ratio koff/kₒₙ.
On the technique in general: In SPR one partner is held on a chip, and binding of the other changes the refractive index at the surface.

In assay [3] the target is T3, cynomolgus monkey MerTK (cynomolgus monkey, UniProt A0A2K5V1H9 32-505).
T3 construct: Soluble analyte in SPR; also called Cyno MerTK
T3 sequence: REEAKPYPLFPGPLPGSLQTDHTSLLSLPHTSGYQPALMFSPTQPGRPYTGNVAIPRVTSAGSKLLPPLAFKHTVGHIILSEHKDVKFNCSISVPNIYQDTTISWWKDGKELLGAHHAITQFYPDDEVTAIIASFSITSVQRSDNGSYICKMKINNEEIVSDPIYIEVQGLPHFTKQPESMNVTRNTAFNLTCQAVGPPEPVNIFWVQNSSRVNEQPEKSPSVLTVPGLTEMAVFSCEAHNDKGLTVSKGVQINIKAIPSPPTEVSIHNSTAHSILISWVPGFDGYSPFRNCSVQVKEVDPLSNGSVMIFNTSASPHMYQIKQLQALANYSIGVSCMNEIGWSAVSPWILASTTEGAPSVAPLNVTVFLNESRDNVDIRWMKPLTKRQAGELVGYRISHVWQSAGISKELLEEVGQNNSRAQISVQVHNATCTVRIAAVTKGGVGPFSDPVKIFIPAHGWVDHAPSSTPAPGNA
As to the kind of experiment: SPR BIAcore T200, Ab captured, 37C. On the procedure: as §1

The next assay deals with T4, rat MerTK (rat, UniProt P57097 23-496, limits assumed).
T4 construct: Soluble analyte in SPR
T4 sequence (looked up): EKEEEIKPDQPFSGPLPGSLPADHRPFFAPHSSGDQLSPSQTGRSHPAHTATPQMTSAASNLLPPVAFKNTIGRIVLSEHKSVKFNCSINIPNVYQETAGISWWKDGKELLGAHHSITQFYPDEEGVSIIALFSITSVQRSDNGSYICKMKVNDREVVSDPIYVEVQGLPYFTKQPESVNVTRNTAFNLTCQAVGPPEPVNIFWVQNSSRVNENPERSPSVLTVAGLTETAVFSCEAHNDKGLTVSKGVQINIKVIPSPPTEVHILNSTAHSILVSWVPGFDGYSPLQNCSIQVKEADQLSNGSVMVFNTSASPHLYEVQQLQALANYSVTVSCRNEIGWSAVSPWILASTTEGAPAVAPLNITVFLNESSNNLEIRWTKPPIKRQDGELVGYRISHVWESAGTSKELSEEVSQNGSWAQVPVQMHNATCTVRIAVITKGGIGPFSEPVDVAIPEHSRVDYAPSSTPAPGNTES
Kind of assay: SPR BIAcore T200, Ab captured, 37C. As for the experimental part: as §1

For assay [4], the target named is T5, mouse MerTK (mouse, UniProt Q60805 23-496).
T5 construct: also called MuMER
T5 sequence (looked up): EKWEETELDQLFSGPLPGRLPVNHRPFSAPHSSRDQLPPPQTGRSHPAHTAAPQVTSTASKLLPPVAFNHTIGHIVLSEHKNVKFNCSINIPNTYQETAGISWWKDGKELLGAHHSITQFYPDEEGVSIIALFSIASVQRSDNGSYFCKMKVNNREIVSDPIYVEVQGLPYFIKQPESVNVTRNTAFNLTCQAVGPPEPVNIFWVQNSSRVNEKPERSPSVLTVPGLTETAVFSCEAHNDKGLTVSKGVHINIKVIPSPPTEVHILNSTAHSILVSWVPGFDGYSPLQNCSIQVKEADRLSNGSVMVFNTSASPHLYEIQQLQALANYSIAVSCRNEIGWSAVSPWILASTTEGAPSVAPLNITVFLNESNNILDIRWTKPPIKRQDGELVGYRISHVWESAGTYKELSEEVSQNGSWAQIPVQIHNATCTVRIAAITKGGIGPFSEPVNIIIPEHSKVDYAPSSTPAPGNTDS
Kind of assay: SPR BIAcore T200, Ab captured, 37C. On the procedure:
as §1

Assay [5] concerns the target T2, human MerTK. Kind of assay: SPR BIAcore T200, Ab captured, 25C. As for the experimental part: as §1
For assay [6], the target named is T3, cynomolgus monkey MerTK. As to the kind of experiment: SPR BIAcore T200, Ab captured, 25C. As for the experimental part:
as §1

Assay [7] concerns the target T5, mouse MerTK. As to the kind of experiment: SPR BIAcore T200, Ab captured, 25C. On the procedure: as §1
The target in another assay is T6, HuMER (R26-A499) (human, UniProt Q12866 26-499).
T6 construct: Extracellular domain with both Ig-like and both fibronectin-like domains; also called human MerTK extracellular domain
T6 sequence: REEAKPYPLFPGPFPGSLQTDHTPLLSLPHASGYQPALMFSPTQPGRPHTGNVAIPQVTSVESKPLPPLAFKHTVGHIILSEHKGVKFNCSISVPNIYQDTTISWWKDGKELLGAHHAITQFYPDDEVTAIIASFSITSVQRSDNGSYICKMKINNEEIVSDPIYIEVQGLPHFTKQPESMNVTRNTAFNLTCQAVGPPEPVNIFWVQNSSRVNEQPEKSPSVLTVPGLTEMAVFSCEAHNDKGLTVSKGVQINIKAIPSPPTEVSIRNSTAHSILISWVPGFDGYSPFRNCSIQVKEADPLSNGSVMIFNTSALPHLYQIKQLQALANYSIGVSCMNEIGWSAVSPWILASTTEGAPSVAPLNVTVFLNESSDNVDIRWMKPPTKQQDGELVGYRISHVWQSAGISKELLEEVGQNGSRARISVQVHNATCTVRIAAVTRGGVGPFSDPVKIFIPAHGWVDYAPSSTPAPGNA
Kind of assay: SPR BIAcore T200, Ab captured, 25C. As for the experimental part:
(§2) Binding affinity determinations were obtained using Surface Plasmon Resonance (SRP) measurements from a BIAcore™-T200 instrument. Briefly, each rabbit antibody was captured to achieve approximately 100 RU (Response Units). Then, 3-fold serial dilutions of the various MerTK domains (0.4 nM to 100 nM) diluted in HBS-EP buffer (0.01M HEPES pH 7.4, 0.15M NaCl, 3 mM EDTA and 0.05% v/v surfactant P20) was injected into the BIAcore™-T200 instrument at 25° C. or 37° C. with a flow rate of 30 μl/min. Association rates (kₒₙ) and dissociation rates (koff) were calculated using a simple one-to-one Langmuir binding model (BIAcore T200 evaluation software version 2.0). The equilibrium dissociation constant (KD) was calculated as the ratio koff/kₒₙ.
(§3) Antibody epitope determination was assessed by BIAcore analysis for rabbit antibodies binding against both the human and mouse MerTK extracellular domain (HuMER R26-A499 and MuMER E23-S496), Ig1&2 domain, Ig1-only domain, and Ig2-only domain (TABLE 18). Human MerTK and its domains are shown in light gray, while mouse MerTK and its domains are shown in dark gray.

The target of the next assay is T7, MuMER (E23-S496) (mouse, UniProt Q60805 23-496).
T7 construct: range 23-496; also called mouse MerTK extracellular domain
T7 sequence (looked up): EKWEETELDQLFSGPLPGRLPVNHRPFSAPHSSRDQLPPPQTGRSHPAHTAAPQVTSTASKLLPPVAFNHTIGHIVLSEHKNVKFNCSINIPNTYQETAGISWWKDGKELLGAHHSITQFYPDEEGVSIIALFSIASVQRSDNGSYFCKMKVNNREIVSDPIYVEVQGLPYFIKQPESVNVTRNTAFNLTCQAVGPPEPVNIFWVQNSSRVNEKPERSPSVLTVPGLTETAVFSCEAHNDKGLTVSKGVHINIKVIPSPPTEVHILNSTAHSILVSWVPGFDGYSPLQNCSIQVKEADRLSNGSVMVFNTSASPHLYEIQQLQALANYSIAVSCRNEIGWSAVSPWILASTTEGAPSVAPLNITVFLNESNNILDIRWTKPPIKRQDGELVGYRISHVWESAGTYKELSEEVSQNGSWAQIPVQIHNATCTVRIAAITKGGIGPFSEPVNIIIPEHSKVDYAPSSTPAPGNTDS
Kind of assay: SPR BIAcore T200, Ab captured, 25C. On the procedure: as §2, §3

B1: h10C3.v14 (antibody, V domains shown)
VH: EVQLVESGGGLVQPGGSLRLSCAASGFSLSGYTMGWVRQAPGKGLEYIGVISSGGTTYYTNWAKGRFTISKDNSKNTLYLQMGSLRAEDMAVYYCARVAFTAYGGGGFPTLHRLDLWGQGTLVTVSS
VL: DQVLTQSPDSLAVSLGERATINCQSSESVYNNDYLAWYQQKPGQPPKLLIYSASTLASGVPDRFSGSGSGTDFTLTISSLQAEDVAVYYCAGGYLGNNVFGGGTKVEIK
notes: Humanized, human IgG1; also called 10C3 Humanized polished mAb
For the molecule B1, in [1], the “IC50 (nM), efferocytosis by human macrophages, Average (3 Donors)” value is 0.95 nM; the “IC50 (nM), efferocytosis by human macrophages, Donor A” value amounted to 0.52 nM; the “IC50 (nM), efferocytosis by human macrophages, Donor B” value was 1.2 nM; the “IC50 (nM), efferocytosis by human macrophages, Donor C” value amounted to 1.2 nM. In [1], the “Max Inhibition (%), efferocytosis by human macrophages, Average (3 Donors)” value came to 61%; the “Max Inhibition (%), efferocytosis by human macrophages, Donor A” value stood at 64%; the “Max Inhibition (%), efferocytosis by human macrophages, Donor B” value was 58%; the “Max Inhibition (%), efferocytosis by human macrophages, Donor C” value came out at 62%. The Kd with human MerTK [2] is 6.9 nM. This molecule also returned a Kd in the assay with cynomolgus monkey MerTK [3] of 3.2 nM. In addition, in the assay with rat MerTK, the Kd came to 2.4 nM. For the same molecule, the Kd with mouse MerTK [4] turned out to be 0.9 nM.

B2: Rbt8F4 (antibody, V domains shown)
VH: QSVQESGGRLVTPGTPLTLTCTVSGFSLINYPMSWVRQAPGKGLEWIGVISSTGGTNYASWAKGRFTISKTSTTVDLKITSPTTEDTATYFCARVDFLVYLGGAYIIWGLDLWGQGTLVTVSS
VL: AAVLTQTPSPVSAAVGGTVTINCQSSPNIYSNYLSWFQQKPGQPPKILIYGASTLASGVPSRFKGSGSGTQFTLTISDVQCDDAATYYCAGGYSDSSEAYAFGGGTEVVVK
notes: Recombinant rabbit monoclonal antibody, Expi293, protein A purified
As for B2, the Kd was 44 nM with human MerTK [5]; 14.7 nM in the assay with cynomolgus monkey MerTK [6]; 2.3 nM with mouse MerTK [7]; 44 nM with HuMER (R26-A499); 2.3 nM with MuMER (E23-S496).

Usually Kd stands for the equilibrium constant for the complex coming apart.
